Changes are numbered by the printed parent chain. Names may count otherwise. Blank lines part the entries; values can stand above or below the binder they belong to.
Assays:
[1] = target: T1, rHuman IGF-1 sR (insulin-like growth factor-1 soluble receptor), CF (R&D Systems Cat#391-GR) (human, UniProt P08069 31-932); experiment: MSD ECL multispot assay, antigen spotted on plate, Fab in solution; blank spot of this row 504
T1 construct: Bought recombinant soluble receptor

[2] = target: T2, Recombinant Human DLL4 (R&D Systems Cat#1506-D4/CF) (human, UniProt Q9NR61 27-524); experiment: as above
T2 construct: Bought recombinant protein; also called delta-like protein 4; rHuman DLL4

[3] = target: T3, rHuman Notch-1/Fc Chimera, CF (R&D Systems Cat#3647-TK) (human, UniProt P46531 19-526); experiment: as above
T3 construct: Bought recombinant protein; not shown: Fc of the bought chimera

[4] = target: T4, rHuman Erythropoietin R/Fc Chimera, CF (R&D Systems Cat#963-ER) (human, UniProt P19235 25-250); experiment: as above
T4 construct: Bought recombinant protein; also called EPO R; EPO R/Fc; not shown: Fc of the bought chimera
T4 sequence (looked up): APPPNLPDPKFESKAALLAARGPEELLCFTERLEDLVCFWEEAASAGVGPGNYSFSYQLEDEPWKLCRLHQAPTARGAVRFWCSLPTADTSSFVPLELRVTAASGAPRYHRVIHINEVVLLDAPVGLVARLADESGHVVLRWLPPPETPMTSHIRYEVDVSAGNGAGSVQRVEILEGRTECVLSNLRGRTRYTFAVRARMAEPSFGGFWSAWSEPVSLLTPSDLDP

[5] = target: T5, rHuman EGF R/Fc Chimera, CF (R&D Systems Cat#344-ER) (human, UniProt P00533 25-645); experiment: as above
T5 construct: Bought recombinant protein; not shown: Fc of the bought chimera

[6] = target: T6, rHuman CD44/Fc Chimera, CF (R&D Systems Cat#3660-CD) (human, UniProt P16070 21-220); experiment: as above
T6 construct: Bought recombinant protein; not shown: Fc of the bought chimera

[7] = target: T7, rHuman HGF R/c-MET/Fc Chimera, CF (R&D Systems Cat#358-MT/CF) (human, UniProt P08581 25-932); experiment: as above
T7 construct: Bought recombinant protein; also called HGF R/Fc; not shown: Fc of the bought chimera

[8] = target: T8, rHuman ErbB2/Fc Chimera, CF (R&D Systems Cat#1129-ER) (human, UniProt P04626 23-652); experiment: as above
T8 construct: Bought recombinant protein; not shown: Fc of the bought chimera

[9] = target: T1, rHuman IGF-1 sR (insulin-like growth …); experiment: MSD ECL multispot assay, antigen spotted on plate, Fab in solution; blank spot of this row 348
[10] = target: T2, Recombinant Human DLL4 (R&D Systems …); experiment: as above
[11] = target: T3, rHuman Notch-1/Fc Chimera, CF (R&D …); experiment: as above
[12] = target: T4, rHuman Erythropoietin R/Fc Chimera, CF …; experiment: as above
[13] = target: T5, rHuman EGF R/Fc Chimera, CF (R&D …); experiment: as above
[14] = target: T6, rHuman CD44/Fc Chimera, CF (R&D Systems …); experiment: as above
[15] = target: T7, rHuman HGF R/c-MET/Fc Chimera, CF (R&D …); experiment: as above
[16] = target: T8, rHuman ErbB2/Fc Chimera, CF (R&D …); experiment: as above
[17] = target: T9, rHuman ErbB2/Fc Chimera, CF (R&D Systems Cat#1129-ER) (human, UniProt P04626 23-652); experiment: ECL Multispot (MSD) binding assay, antigen spotted on plate, Fab in solution
T9 construct: Bought recombinant Fc chimera; also called human epidermal growth factor 2 receptor; Fc part of the bought chimera not given

[18] = target: T10, rHuman P-Cadherin/Fc Chimera, CF (R&D Systems Cat#861-PC) (human, UniProt P22223 108-654); experiment: as above
T10 construct: Bought recombinant Fc chimera; Fc part of the bought chimera not given

[19] = target: T11, rHuman CD44/Fc Chimera, CF (R&D Systems Cat#3660-CD) (human, UniProt P16070 21-220); experiment: as above
T11 construct: Bought recombinant Fc chimera; Fc part of the bought chimera not given

[20] = target: T12, rHuman EGF R/Fc Chimera, CF (R&D Systems Cat#344-ER) (human, UniProt P00533 25-645); experiment: as above
T12 construct: Bought recombinant Fc chimera; also called epidermal growth factor receptor; Fc part of the bought chimera not given

[21] = target: T13, Recombinant Human DLL4 (R&D Systems Cat#1506-D4/CF) (human, UniProt Q9NR61 27-524); experiment: as above
T13 construct: Bought recombinant human DLL4; also called delta-like protein 4; Delta-like 4

[22] = target: T14, rHuman HGF R/c-MET/Fc Chimera, CF (R&D Systems Cat#358-MT/CF) (human, UniProt P08581 25-932); experiment: as above
T14 construct: Bought recombinant Fc chimera; also called HGF R/Fc; hepatocyte growth factor receptor; Fc part of the bought chimera not given

[23] = target: T15, rHuman Erythropoietin R/Fc Chimera, CF (R&D Systems Cat#963-ER) (human, UniProt P19235 25-250); experiment: as above
T15 construct: Bought recombinant Fc chimera; also called EPO R; EPO R/Fc; Fc part of the bought chimera not given
T15 sequence (looked up): T4 sequence (looked up)

[24] = target: T16, rHuman Notch-1/Fc Chimera, CF (R&D Systems Cat#3647-TK) (human, UniProt P46531 19-526); experiment: as above
T16 construct: Bought recombinant Fc chimera; Fc part of the bought chimera not given

[25] = target: T17, rHuman IGF-1 sR, CF (R&D Systems Cat#391-GR) (human, UniProt P08069 31-932); experiment: as above
T17 construct: Bought recombinant soluble receptor; also called insulin-like growth factor-1 soluble receptor

[26] = target: T18, rHuman CD44/Fc Chimera, CF (R&D Systems Cat#3660-CD) (human, UniProt P16070 21-220); experiment: ECL Multispot (MSD) assay; antigen spotted on plate, Fab in solution;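 also: fab bound 1 h at 20 °C, detected by TAG-labelled antibody electrochemiluminescence, signal relative to each well's blank, ratio of 4 or more marks a hit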
T18 construct: Bought reagent

[27] = target: T19, rHuman EGF R/Fc Chimera, CF (R&D Systems Cat#344-ER) (human, UniProt P00533 25-645); experiment: as above
T19 construct: Bought reagent; also called epidermal growth factor receptor

[28] = target: T20, rHuman ErbB2/Fc Chimera, CF (R&D Systems Cat#1129-ER) (human, UniProt P04626 23-652); experiment: as above
T20 construct: Bought reagent; also called human epidermal growth factor 2 receptor

[29] = target: T21, rHuman IGF-1 sR, CF (R&D Systems Cat#391-GR) (human, UniProt P08069 31-932); experiment: as above
T21 construct: Bought soluble receptor; the column head 'IGF-1' means IGF-1 sR; also called insulin-like growth factor-1 soluble receptor

[30] = target: T22, rHuman HGF R/c-MET/Fc Chimera, CF (R&D Systems Cat#358-MT/CF) (human, UniProt P08581 25-932); experiment: as above
T22 construct: Bought reagent; also called HGF R/Fc; hepatocyte growth factor receptor

[31] = target: T23, rHuman Erythropoietin R/Fc Chimera, CF (R&D Systems Cat#963-ER) (human, UniProt P19235 25-250); experiment: as above
T23 construct: Bought reagent; also called EPO R; Epo R/Fc
T23 sequence (looked up): T4 sequence (looked up)

[32] = target: T24, rHuman Notch-1/Fc Chimera, CF (R&D Systems Cat#3647-TK) (human, UniProt P46531 19-526); experiment: as above
T24 construct: Bought reagent

[33] = target: T25, Recombinant Human DLL4 (R&D Systems Cat#1506-D4/CF) (human, UniProt Q9NR61 27-524); experiment: as above
T25 construct: Bought recombinant protein; also called delta-like protein 4; rHuman DLL4

[34] = target: T26, rHuman P-Cadherin/Fc Chimera, CF (R&D Systems Cat#861-PC) (human, UniProt P22223 108-654); experiment: as above
T26 construct: Bought reagent

ECL signal [1]: 666
ECL signal [2]: 1260
ECL signal [3]: 611
ECL signal [4]: 845
ECL signal [5]: 638
ECL signal [6]: 646
ECL signal [7]: 616
ECL signal [8]: 573
ECL signal [9]: 471
ECL signal [10]: 1340
ECL signal [11]: 439
ECL signal [12]: 601
ECL signal [13]: 452
ECL signal [14]: 458
ECL signal [15]: 472
ECL signal [16]: 425
B1: Fab VH1-46_IGHD6-6*01_IGHJ1*01 S102A/S103P/S104F/H111F (APFF) & L6_IGKJ1*01 S92C (Fab, V domains shown)
VH: QVQLVQSGAEVKKPGASVKVSCKASGYTFTSYYMHWVRQAPGQGLEWMGIINPSGGSTSYAQKFQGRVTMTRDTSTSTVYMELSSLRSEDTAVYYCAREEYAPFSAEYFQFWGQGTLVTVSS
VL: EIVLTQSPATLSLSPGERATLSCRASQSVSSYLAWYQQKPGQAPRLLIYDASNRATGIPARFSGSGSGTDFTLTISSLEPEDFAVYYCQQRCNWPPWTFGQGTKVEIKR
notes: Fab; also called APFF / S92C

ECL signal [17]: 377
ECL signal [18]: 402
ECL signal [19]: 413
ECL signal [20]: 420
ECL signal [21]: 91400
ECL signal [22]: 287
ECL signal [23]: 543
ECL signal [24]: 541
ECL signal [25]: 323
B2: Fab VH1-46_IGHD6-6*01_IGHJ1*01 S102A/S103P/S104F/H111F (APFF) & L6_IGKJ1*01 S92G (Fab, V domains shown)
VH: B1 VH
VL: B1 VL with C92G
notes: Tested as a Fab made in E. coli; also called APFF / S92G; H:APFF & L6_IGKJ1*01 S92G

ECL signal [26]: 162
ECL signal [27]: 208
ECL signal [28]: 154
ECL signal [29]: 175
ECL signal [30]: 222
ECL signal [31]: 230
ECL signal [32]: 137
ECL signal [33]: 1030
ECL signal [34]: 51
B3: Fab VH1-46_IGHD6-6*01_IGHJ1*01 S102A/S103P/S104F (APF) & L6_IGKJ1*01 Y32S (Fab, V domains shown)
VH: B1 VH with F111H
VL: B1 VL with Y32S, C92S
notes: Fab format as for the parent (CH1 with His6/Flag tags, kappa CL); also called APF / Y32S
